Experimental data reported in publication PMC8525636.
Each block holds one substance with its values, some of them ahead of it.

Legend:
[1] = target: recombinant human IgA1-Fc CH2-CH3-TP, C471S mutant; assay: SEC (size-exclusion chromatography), self-association into poly-hu-rIgA; details: parent: est. 9.0; read off a plot
[2] = target: recombinant rat IgA-Fc segment CH2-CH3-TP, C311S mutant; assay: SEC (size-exclusion chromatography), self-association into poly-rIgA; details: parent: est. 32; read off a plot
[3] = target: recombinant rat IgA-Fc segment CH2-CH3-TP, C311/471S double mutant; assay: as above; details: parent: est. 32; read off a plot
[4] = target: recombinant rat IgA-Fc segment CH2-CH3-TP, C471S mutant; assay: as above; details: parent: est. 32; read off a plot

other: Distribution (%), poly-hu-rIgA share of SEC AUC [1]: 4%
Substance: recombinant human IgA1-Fc CH2-CH3-TP, wild type (human rIgA1-Fc) C471S

other: Distribution (%), poly-rIgA share of SEC AUC [2]: 28%
Substance: recombinant rat IgA-Fc segment CH2-CH3-TP, wild type (rat rIgA) C311S

other: Distribution (%), poly-rIgA share of SEC AUC [3]: 1.5%
Substance: recombinant rat IgA-Fc segment CH2-CH3-TP, wild type (rat rIgA) C311S; C471S

other: Distribution (%), poly-rIgA share of SEC AUC [4]: 2.5%
Substance: recombinant rat IgA-Fc segment CH2-CH3-TP, wild type (rat rIgA) C471S
